Experimental data reported in paper PMC12400496 (Bioscience Reports, 2025).

Experiments:
CtcQ [1] = biological target: T1, CtcQ (Kitasatospora aureofaciens, UniProt S4S3E3); experiment: X-ray crystal structure (co-crystal); format: binding; conditions: co-crystallised with 5 mM NAD and 5 mM FAD, pH 7.5
T1 construct: full length; crystal: N-terminal His10 tag cut by PreScission protease; reductase assay: C-terminal His6 tag kept; homodimer; primers encode N-terminus MPPEPLS and C-terminus TLAAEG

CtcP = biological target: T2, CtcP (Kitasatospora aureofaciens, UniProt A0A1E7MYN1); experiment: X-ray crystal structure (FAD soak); format: binding; conditions: chloride ion bound near isoalloxazine ring; soaked with 1 mM FAD, 20 mM NaCl, pH 7.5, 16 h
T2 construct: full length, 555 residues; N-terminal His10 tag cut by PreScission protease; expressed in E. coli BL21(DE3); homodimer; primers encode N-terminus MTDTTAD and C-terminus AMRVKP
T2 sequence (A0A1E7MYN1 whole entry): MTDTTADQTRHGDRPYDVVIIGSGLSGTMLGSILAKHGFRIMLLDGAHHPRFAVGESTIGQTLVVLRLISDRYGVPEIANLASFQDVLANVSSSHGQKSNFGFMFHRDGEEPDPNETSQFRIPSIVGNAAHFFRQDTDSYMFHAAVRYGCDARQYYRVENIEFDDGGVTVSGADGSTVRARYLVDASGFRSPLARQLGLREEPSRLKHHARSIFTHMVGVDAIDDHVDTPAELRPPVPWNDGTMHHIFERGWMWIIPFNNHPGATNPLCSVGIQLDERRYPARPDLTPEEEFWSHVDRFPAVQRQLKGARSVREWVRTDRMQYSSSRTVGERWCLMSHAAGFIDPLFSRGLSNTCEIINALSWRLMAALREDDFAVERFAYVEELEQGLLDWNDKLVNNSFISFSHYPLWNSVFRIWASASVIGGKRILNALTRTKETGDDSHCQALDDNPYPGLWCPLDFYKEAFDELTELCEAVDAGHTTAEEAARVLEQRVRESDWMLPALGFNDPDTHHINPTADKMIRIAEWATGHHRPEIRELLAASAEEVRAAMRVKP

CtcQ [2] = biological target: T1, CtcQ; experiment: NADH oxidation, absorbance at […] nm; format: biochemical; conditions: 0.1 mM FMN, 1 mM NADH, 1.7 uM CtcQ (C-terminal His6), 20 mM HEPES pH 7.5
[3] = biological target: CtcP (1-516), C-terminal truncation mutant lacking the helical hairpin (residues 1-516, P516G) (Kitasatospora aureofaciens); experiment: SEC; S-200 column in 40 mM Tris pH 8.0, 100 mM NaCl, 2 mM BME; position of monomeric PltM as marker
[4] = biological target: halogenase CtcP from Kitasatospora aureofaciens, full-length (Kitasatospora aureofaciens); experiment: crystal structure; CtcP in complex with FAD and Cl-; crystals from 0.1 M HEPES pH 7.5, 26% PEG 4000, 0.2 M Li2SO4, 21 °C, soaked with 1 mM FAD for 16 h
[5] = biological target: halogenase CtcP from Kitasatospora aureofaciens, full-length (Kitasatospora aureofaciens); experiment: crystal structure; CtcP in complex with PEG and sulfate; hanging drops, 100 mM HEPES pH 7.0, 1.6 M ammonium sulfate, 2% PEG 400, 21 °C
[6] = biological target: halogenase CtcP from Kitasatospora aureofaciens, full-length (Kitasatospora aureofaciens); experiment: SEC; S-200 column in 40 mM Tris pH 8.0, 100 mM NaCl, 2 mM BME; position of monomeric PltM as marker
[7] = biological target: the molecule itself; experiment: crystal structure; CtcQ in complex with FAD and NAD; hanging drops, 0.1 M Tris pH 7.5, 0.6 M KH2PO4, 0.6 M NaH2PO4, 21 °C, 5 mM NAD and 5 mM FAD

Molecule: Cc1cc2nc3c(=O)[nH]c(=O)nc-3n(C[C@H](O)[C@H](O)[C@H](O)COP(=O)(O)OP(=O)(O)OC[C@H]3O[C@@H](n4cnc5c(N)ncnc54)[C@H](O)[C@@H]3O)c2cc1C [FAD]
- X-ray crystal structure (co-crystal) (CtcQ [1]; flavin subsite, second FAD also in the NAD subsite of most active sites): determined the crystal structure of CtcQ in complex with FAD and NAD
- X-ray crystal structure (FAD soak) (CtcP): We obtained crystals of the CtcP-FAD complex by soaking FAD into the CtcP crystals

Molecule: Cc1cc2nc3c(=O)[nH]c(=O)nc-3n(C[C@H](O)[C@H](O)[C@H](O)COP(=O)(O)O)c2cc1C [FMN]
- NADH oxidation, absorbance at 340 nm (CtcQ [2]): CtcQ, which was highly active with either FAD or FMN as a substrate

Molecule: NC(=O)c1ccc[n+]([C@@H]2O[C@H](COP(=O)(O)OP(=O)(O)OC[C@H]3O[C@@H](n4cnc5c(N)ncnc54)[C@H](O)[C@@H]3O)[C@@H](O)[C@H]2O)c1 [NAD]
- X-ray crystal structure (co-crystal) (CtcQ [1]; U-shaped, stacked on FAD, text also calls the bound molecule NADH): determined the crystal structure of CtcQ in complex with FAD and NAD

Molecule: CtcP (1-516), C-terminal truncation mutant lacking the helical hairpin (residues 1-516, P516G) (domain or fragment)
- stoichiometry N [3]: 2

Molecule: halogenase CtcP from Kitasatospora aureofaciens, full-length (enzyme)
- stoichiometry N [4]: 2
- stoichiometry N [5]: 2
- stoichiometry N [6]: 2

B1: FAD reductase CtcQ from Kitasatospora aureofaciens (N-terminal tag removed) (enzyme, UniProt S4S3E3 1-191, looked up)
chain: MPPEPLSLPLDLAPGLVDGDTFLSIMGALPTGVTVVTTLGPDGEPYGLTCSAACSVSKAPPLLLVCINRDSRVLKALLERGEFAVNVLRGGGESTSARFAAPVDDRFRDVRWEPGSAGGVPVMSADVVAHAECRVAAALDAGDHTIVIGAVVAGGPRPEVPSPLMYWRRSYARWPVEEDPRTAALTLAAEG
notes: a second construct with a C-terminal His6 tag (pET22b) was used only for the reductase activity assay; also called flavin reductase CtcQ; source: E. coli BL21(DE3), purified (Ni2+-chelating chromatography, tag cleavage, S-200 size exclusion); not shown: His10, N-terminal, cleaved
- stoichiometry N [7]: 2
